Test results published in US20100015637A1 (AbbVie / Abbott, published 2010).

What was measured:
[1] = target: CHO human PlGF-1 comprising amino acids 1-137 (human PlGF-1-His (1-131), CHO 6305) (human) (UniProt P49763); experiment: … sandwich, capture MAb04, detection pAb264; antigen 750 pg/mL
[2] = target: recombinant human PlGF-1 (comprising amino acids 1-131) expressed in E. coli (R&D Systems) (human) (UniProt P49763); experiment: as above
[3] = target: CHO human PlGF-1 fragment (comprising amino acids 17-131; ATCC PTA-8540) (human) (UniProt P49763); experiment: as above
[4] = target: human PlGF-1 comprising amino acids 1-137 produced in human embryonic kidney cells (human) (UniProt P49763); experiment: as above
[5] = target: human PlGF-1 fragment (comprising amino acids 17-131) produced in human embryonic kidney cells (human) (UniProt P49763); experiment: as above
[6] = target: CHO human PlGF-1 comprising amino acids 1-137 (human PlGF-1-His (1-131), CHO 6305) (human) (UniProt P49763); experiment: … sandwich, capture MAb04, detection pAb264; antigen 250 pg/mL
[7] = target: recombinant human PlGF-1 (comprising amino acids 1-131) expressed in E. coli (R&D Systems) (human) (UniProt P49763); experiment: as above
[8] = target: CHO human PlGF-1 fragment (comprising amino acids 17-131; ATCC PTA-8540) (human) (UniProt P49763); experiment: as above
[9] = target: human PlGF-1 comprising amino acids 1-137 produced in human embryonic kidney cells (human) (UniProt P49763); experiment: as above
[10] = target: human PlGF-1 fragment (comprising amino acids 17-131) produced in human embryonic kidney cells (human) (UniProt P49763); experiment: as above
[11] = target: CHO human PlGF-1 comprising amino acids 1-137 (human PlGF-1-His (1-131), CHO 6305) (human) (UniProt P49763); experiment: … sandwich, capture MAb04, detection pAb264; antigen 60 pg/mL
[12] = target: recombinant human PlGF-1 (comprising amino acids 1-131) expressed in E. coli (R&D Systems) (human) (UniProt P49763); experiment: as above
[13] = target: CHO human PlGF-1 fragment (comprising amino acids 17-131; ATCC PTA-8540) (human) (UniProt P49763); experiment: as above
[14] = target: human PlGF-1 comprising amino acids 1-137 produced in human embryonic kidney cells (human) (UniProt P49763); experiment: as above
[15] = target: human PlGF-1 fragment (comprising amino acids 17-131) produced in human embryonic kidney cells (human) (UniProt P49763); experiment: as above
[16] = target: CHO human PlGF-1 comprising amino acids 1-137 (human PlGF-1-His (1-131), CHO 6305) (human) (UniProt P49763); experiment: … sandwich, capture MAb04, detection pAb264; antigen 15 pg/mL
[17] = target: recombinant human PlGF-1 (comprising amino acids 1-131) expressed in E. coli (R&D Systems) (human) (UniProt P49763); experiment: as above
[18] = target: CHO human PlGF-1 fragment (comprising amino acids 17-131; ATCC PTA-8540) (human) (UniProt P49763); experiment: as above
[19] = target: human PlGF-1 comprising amino acids 1-137 produced in human embryonic kidney cells (human) (UniProt P49763); experiment: as above
[20] = target: human PlGF-1 fragment (comprising amino acids 17-131) produced in human embryonic kidney cells (human) (UniProt P49763); experiment: as above
[21] = target: CHO human PlGF-1 comprising amino acids 1-137 (human PlGF-1-His (1-131), CHO 6305) (human) (UniProt P49763); experiment: … sandwich, capture MAb04, detection pAb264; antigen 1500 pg/mL
[22] = target: recombinant human PlGF-1 (comprising amino acids 1-131) expressed in E. coli (R&D Systems) (human) (UniProt P49763); experiment: as above
[23] = target: CHO human PlGF-1 fragment (comprising amino acids 17-131; ATCC PTA-8540) (human) (UniProt P49763); experiment: as above
[24] = target: human PlGF-1 comprising amino acids 1-137 produced in human embryonic kidney cells (human) (UniProt P49763); experiment: as above
[25] = target: human PlGF-1 fragment (comprising amino acids 17-131) produced in human embryonic kidney cells (human) (UniProt P49763); experiment: as above
[26] = target: CHO human PlGF-1 comprising amino acids 1-137 (human PlGF-1-His (1-131), CHO 6305) (human) (UniProt P49763); experiment: … sandwich, capture MAb04, detection pAb264; antigen 0 pg/mL (blank)
[27] = target: recombinant human PlGF-1 (comprising amino acids 1-131) expressed in E. coli (R&D Systems) (human) (UniProt P49763); experiment: as above
[28] = target: CHO human PlGF-1 fragment (comprising amino acids 17-131; ATCC PTA-8540) (human) (UniProt P49763); experiment: as above
[29] = target: human PlGF-1 comprising amino acids 1-137 produced in human embryonic kidney cells (human) (UniProt P49763); experiment: as above
[30] = target: human PlGF-1 fragment (comprising amino acids 17-131) produced in human embryonic kidney cells (human) (UniProt P49763); experiment: as above

Chain of CHO human PlGF-1 comprising amino acids 1-137 (human PlGF-1-His (1-131), CHO 6305) (human) (P49763 other isoform, or with tags, fused parts or gaps): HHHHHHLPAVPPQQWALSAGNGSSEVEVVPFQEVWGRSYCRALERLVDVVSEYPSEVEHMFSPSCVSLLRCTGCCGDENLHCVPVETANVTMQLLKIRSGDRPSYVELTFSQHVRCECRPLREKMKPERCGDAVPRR
Chain of human PlGF-1 comprising amino acids 1-137 produced in human embryonic kidney cells (human) (P49763 other isoform, or with tags, fused parts or gaps): as above
Chain of human PlGF-1 fragment (comprising amino acids 17-131) produced in human embryonic kidney cells (human) (P49763 other isoform, or with tags, fused parts or gaps limits assumed): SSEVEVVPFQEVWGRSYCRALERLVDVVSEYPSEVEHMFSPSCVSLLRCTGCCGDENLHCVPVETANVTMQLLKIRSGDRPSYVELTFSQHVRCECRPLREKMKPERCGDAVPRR
Chain of CHO human PlGF-1 fragment (comprising amino acids 17-131; ATCC PTA-8540) (human) (P49763 other isoform, or with tags, fused parts or gaps limits assumed): as above

rat monoclonal antibody 04 (Rat anti-Human PlGF clone number 358932, R&D Systems)
RLU [1]: 644000 RLU | RLU [2]: 1.36e+06 RLU | RLU [3]: 752000 RLU | RLU [4]: 1.26e+06 RLU | RLU [5]: 957000 RLU | RLU [6]: 246000 RLU | RLU [7]: 570000 RLU | RLU [8]: 293000 RLU | RLU [9]: 539000 RLU | RLU [10]: 382000 RLU | RLU [11]: 80100 RLU | RLU [12]: 169000 RLU | RLU [13]: 89500 RLU | RLU [14]: 159000 RLU | RLU [15]: 112000 RLU | RLU [16]: 32100 RLU | RLU [17]: 51900 RLU | RLU [18]: 34200 RLU | RLU [19]: 49700 RLU | RLU [20]: 39500 RLU | RLU [21]: 1.13e+06 RLU | RLU [22]: 2.19e+06 RLU | RLU [23]: 1.3e+06 RLU | RLU [24]: 2.05e+06 RLU | RLU [25]: 1.64e+06 RLU | RLU [26]: 19100 RLU | RLU [27]: 19000 RLU | RLU [28]: 18900 RLU | RLU [29]: 18800 RLU | RLU [30]: 18700 RLU
